# Test results: patent publication US20230137562A1, “TAU AGGREGATION INHIBITORS” (priority 2017, published 2023)
# “And” between values parts separate entries of the source, which are not always exact repeats. Equal entries are not always repeated. Square brackets hold non-standard residues; d marks the D form. Ends that are not written are not given here. NMeI = CC[C@H](C)[C@H](NC)C(=O)O; hArg = N=C(N)NCCCC[C@H](N)C(=O)O; Orn = NCCC[C@H](N)C(=O)O
# T1: Ac-VQIINK-NH2
# T1 peptide: Ac-VQIINK-NH2
# Molecular target: His-Tau40P301L Tau (UniProt P10636-8 1-441)
# Experiment: cell-based or functional assay
# Chain of His-Tau40P301L Tau (P10636 other isoform, or with tags, fused parts or gaps limits assumed): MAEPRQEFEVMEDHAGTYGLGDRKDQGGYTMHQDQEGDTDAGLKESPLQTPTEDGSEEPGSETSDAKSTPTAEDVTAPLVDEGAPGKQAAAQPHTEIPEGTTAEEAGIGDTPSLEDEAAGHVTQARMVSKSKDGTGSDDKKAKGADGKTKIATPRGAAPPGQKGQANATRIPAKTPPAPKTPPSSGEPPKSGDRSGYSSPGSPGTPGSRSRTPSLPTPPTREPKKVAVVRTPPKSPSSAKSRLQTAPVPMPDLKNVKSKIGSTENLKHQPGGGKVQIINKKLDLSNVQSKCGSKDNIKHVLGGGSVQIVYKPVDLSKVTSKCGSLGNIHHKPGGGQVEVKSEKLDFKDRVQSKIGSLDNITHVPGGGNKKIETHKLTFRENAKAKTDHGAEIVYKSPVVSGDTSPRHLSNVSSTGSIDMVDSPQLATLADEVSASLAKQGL
row,Binder,"IC50 (µM), Tau40 assay (ThT)"
1,YRIRLRY,1.08 µM
2,WRIEIRW,4.84 µM
3,FRIKLRW,2.6 µM
4,HWKIIWYR,2.39 µM
5,WRIWARYW,2.95 µM
6,WY[Orn]L[Orn]I[Orn]W [WYOLOIOW],5.2 µM
7,WRLRLRW,0.23 µM
8,WRINIRYW,7.45 µM
9,RIRIWYW,5.51 µM
10,WIRLYWRW,2.42 µM and 2.38 µM
11,RIRRWIW,4.55 µM
12,HWWIRIRYW,3.11 µM
13,WYRVRGRVW,6.4 µM and 6.5 µM
14,FRIRIRF,6.01 µM
15,RIWIRYW,2.42 µM
16,WRIWIRYR,2.64 µM
17,WKVQVRLW,2.4 µM and 2.31 µM
18,RIRLYIW,2.12 µM
19,RIRAWIW,14.6 µM

row,Binder,"IC50 (µM), Tau40 assay (ThT)"
1,FRIWIRYW,2.12 µM
2,WIRYWIRW,2.42 µM
3,WRIWIRAW,3.54 µM
4,IRIWLW,4.08 µM
5,WR[NMeI]RIRW [WR(NMe)IRIRW],1.48 µM
6,WRIRIWYW,0.85 µM
7,LFYLRLR,7.13 µM
8,RIRLWYW,8.01 µM
9,RIRIWAW,8.38 µM
10,RWWIRIRYW,2.54 µM
11,RIRIWKW,5.71 µM
12,RIRIRIW,2.89 µM
13,WWIRIRYWH,2.16 µM and 2.3 µM
14,IWIRYWWR,2.44 µM
15,RIRIWRW,2.39 µM
16,RIWIRYWW,2.28 µM
17,WRIWIRYL,4.09 µM
18,WIRIRYW,2.6 µM
19,WRILIRYW,14.6 µM

row,Binder,"IC50 (µM), Tau40 assay (ThT)"
1,RIRLYWW,1.74 µM
2,ILRYWH,2.49 µM
3,RIWIYWFR,0.55 µM
4,RIRIWIW,0.84 µM and 1.38 µM
5,WRLWIHWW,2.96 µM
6,WRVWGWVRW,1.81 µM and 1.85 µM
7,W[hArg]I[hArg]I[hArg]W [W(hR)I(hR)I(hR)W],6.13 µM
8,WRIEIRYW,12 µM
9,WRIWLYWR,1.69 µM
10,LRIWIRYW,1.71 µM
11,WRIAIRW,4.01 µM
12,LWWIRIRYW,1.59 µM and 1.8 µM
13,WRAWIRYW,2.59 µM
14,W[Orn]I[Orn]I[Orn]W [WOIOIOW],1.17 µM
15,YKLHIRHW,5.72 µM
16,WRIRLRGW,1.74 µM and 1.91 µM
17,WEIRIRW,11.1 µM
18,WRIFIRYW,7.67 µM

# Molecular target: T1, Ac-VQIINK-NH2
# Experiment: cell-based or functional assay
row,Binder,"IC50 (µM), VQIINK Inhibition (ThT)"
1,FRIKLRW,2.38 µM
2,WRLRLRW,2.22 µM
3,WIRLYWRW,1.86 µM
4,RIWIRYW,4.87 µM
5,WRIWIRYR,3.33 µM
6,WKVQVRLW,1.35 µM
7,IRIWVW,2.43 µM
8,WIRYWIRW,1.78 µM
9,IRLIVW,3.01 µM
10,WRIRIWYW,2.43 µM
11,WRIWLWYR,2.7 µM
12,IRLWLW,1.27 µM
13,RWWIRIRYW,2.76 µM
14,IWIRYWWR,2.01 µM
15,WIRIRYW,6.02 µM
16,WRIWIRYW,1.89 µM
17,RIRIWIW,2.38 µM
18,RIWLRVW,4.09 µM
19,RIRIWLW,1.93 µM
